B1: leukotoxin (LtxA) of Aggregatibacter actinomycetemcomitans (natural protein)
chain: MATTTLPNTKQQAAQFANSVADRAKENIDAAKEQLQKALDKLGKTGKKLTLYIPKNYKKGNGLTALIKAAQKLGIEVYHEGKDGPALTNGILNTGKKLLGLTERGLTLFAPELDKWIQGNKHLSNSVGSTGNLTKAIDKVQSVLGTLQAFLNTAFSGMDLDALIKARQNGKNVTDVQLAKASLNLINELIGTISSITNNVDTFSKQLNKLGEALGQVKHFGSFGDKLKNLPKLGNLGKGLGALSGVLSAISAALLLANKDADTATKAAAAAELTNKVLGNIGKAITQYLIAQRAAAGLSTTGPVAGLIASVVSLAISPLSFLGIAKQFDRARMLEEYSKRFKKFGYNGDSLLGQFYKNTGIADAAITTINTVLSAIAAGVGAASAGSLVGAPIGLLVSAITSLISGILDASKQAVFEHIANQLADKIKAWENKYGKNYFENGYDARHSAFLEDSLKLFNELREKYKTENILSITQQGWDQRIGELAGITRNGDRIQSGKAYVDYLKKGEELAKHSDKFTKQILDPIKGNIDLSGIKGSTTLTFLNPLLTAGKEERKTRQSGKYEFITELKVKGRTDWKVKGVPNSNGVYDFSNLIQHAVTRDNKVLEARLIANLGAKDDYVFVGSGSTIVNAGDGYDVVDYSKGRTGALTIDGRNATKAGQYKVERDLSGTQVLQETVSKQETKRGKVTDLLEYRNYKLDYYYTNKGFKAHDELNSVEEIIGSTLRDKFYGSKFNDVFHGHDGDDLIYGYDGDDRLYGDNGNDEIHGGQGNDKLYGGAGNDRLFGEYGNNYLDGGEGDDHLEGGNGSDILRGGSGNDKLFGNQGDDLLDGGEGDDQLAGGEGNDIYVYRKEYGHHTITEHSGDKDKLSLANINLKDVSFERNGNDLLLKTNNRTAVTFKGWFSKPNSSAGLDEYQRKLLEYAPEKDRARLKRQFELQRGKVDKSLNNKVEEIIGKDGERITSQDIDNLFDKSGNKKTISPQELAGLIKNKGKSSSLMSSSRSSSMLTQKSGLSNDISRIISATSGFGSSGKALSASPLQTNNNFNSYANSLATTA
B2: W2S4 peptide (human CD11a-based) (peptide)
peptide: Ac-YLSGLCYLFRQNLQGPML-NH2

Biological target: B2
Experiment: SPR

Binder	KD relative to the KD of LtxA for the other peptides
B1	~2 fold

These binders were tested against B1 (assay: SPR).

Binder	Kd
B2	~10 nM
Ac-TGHCLP-NH2 [W1S4 peptide (human CD11a-based)]	~10 nM
Ac-LSRTCDQNT-NH2 [W2S3 peptide (human CD11a-based; identical in murine CD11a)]	~10 nM
Ac-VTLRGSNYTSKYLGMTLATDP-NH2 [W2S1 peptide (human CD11a-based)]	~10 nM
Ac-TDGSILACDPG-NH2 [W2S2 peptide (human CD11a-based)]	~10 nM
